Assay results taken from publication PMC7890063, “Bioinformatics-aided identification, characterization and applications of mushroom linalool synthases” (Communications Biology, 2021).

Tests used:
Sc.LNS = target: T1, Sc.LNS (Streptomyces clavuligerus, UniProt D5SL78); assay: product formation in E. coli, GC-MS; assay type: cell-based; settings: E. coli with mevalonate pathway; product nerolidol
T1 construct: gene SCLAV_p1185; codon-optimised gene in pET-11a, expressed in E. coli with mevalonate pathway, not purified
T1 sequence (D5SL78 1-329): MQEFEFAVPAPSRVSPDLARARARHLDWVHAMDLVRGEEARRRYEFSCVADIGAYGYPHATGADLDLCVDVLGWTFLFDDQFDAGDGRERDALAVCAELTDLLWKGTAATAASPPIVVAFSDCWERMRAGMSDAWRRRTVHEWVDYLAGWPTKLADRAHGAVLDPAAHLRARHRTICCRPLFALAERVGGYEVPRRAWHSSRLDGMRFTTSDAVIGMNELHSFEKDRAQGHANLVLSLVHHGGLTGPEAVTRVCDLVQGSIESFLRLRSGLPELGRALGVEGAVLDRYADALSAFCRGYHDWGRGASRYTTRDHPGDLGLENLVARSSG

Ap.LS (Agrped1_689675) = assay: PPi release, EnzChek pyrophosphate assay; assay type: biochemical, Agrocybe pediades; settings: 37 °C, 1 h; enzyme 71.2% pure; product (R)-linalool; read-out: Monoterpene synthase
From the text: PPi release, EnzChek pyrophosphate assay on Ap.LS (Agrped1_689675)

[1] = substrate: CC(C)=CCC/C(C)=C/CC/C(C)=C/CO[P@@](=O)(O)OP(=O)(O)O; assay: PPi release, EnzChek pyrophosphate assay; assay type: biochemical, Cyclocybe aegerita; settings: 37 °C, 1 h, enzyme 16.3% pure, product nerolidol
From the text: (§1) PPi release, EnzChek pyrophosphate assay on Aa.LNS (AAE3_109435)

[2] = substrate: CC(C)=CCC/C(C)=C/COP(=O)(O)OP(=O)(O)O; assay: PPi release, EnzChek pyrophosphate assay; assay type: biochemical, Cyclocybe aegerita; settings: 37 °C, 1 h, enzyme 16.3% pure, product (R)-linalool
From the text: as §1

In the case of `CC(C)=CCC/C(C)=C/CC/C(C)=C/COP(=O)(O)OP(=O)(O)O` [(E,E)-FPP], the “product formation in E. coli, GC-MS” value (Sc.LNS) is reported as “Sc.LNS produced a larger amount of nerolidol than linalool in E. coli”.

For `CC(C)=CCC/C(C)=C/COP(=O)(O)OP(=O)(O)O` [GPP], the Km (Ap.LS (Agrped1_689675)) was 3.8 ± 0.7 µM.

B1: Aa.LNS (AAE3_109435) (Cyclocybe aegerita) (protein)
chain: MHSSTQLFTHSPTKMQIILPDLLCSWGYKGFLNPHYEGAKAESNTWIRPLVVKLFDERGQKAFAKDYTGLLASMTYPHHNKEFLCVACDMMNLFFVYDEYTDITPPETAQRLAKIVVNAMRNPDEIAALGEDSIGTMTKQFWRRAMTLLPPNGCNSESCIQHFIDYTEEYLTAVTREACDRSSGSVHAVKDYLAMRRATSGAGLMVGLLEFGLDLPEEVMKHEVIQELSTGAIDMYCLLNDMHSYASELSSGQASHNVITVVMHERNLSLQEAFDWLASYAAGVVKGFKTNLNRVPSFSELEDHSLHGEGMLRDRIQRYIDGLGQAVRAEDDWAFETTRYHGQNGPQIKLTRMLTIRPQVKDNYAKQAPRVEAPERPMLLEVRS
In the case of B1, the Km [1] is reported as 9.0 ± 2.3 µM, the kcat [1] is reported as 0.055 ± 0.005 s⁻¹ and the kcat/Km [1] is reported as 6670 M⁻¹ s⁻¹. It also gave a Km [2] of 6.7 ± 4.6 µM, a kcat [2] of 0.00833 ± 0.00167 s⁻¹ and a kcat/Km [2] of 1670 M⁻¹ s⁻¹.
